Reference: US9744220B2, “Compositions and methods for treating inflammatory diseases” (priority 2013, dated 2017)

Columns and labels:
[1] = test system: primary cardiomyocytes; test: sPDNF stimulation of primary cardiomyocytes, chemokine transcripts by qPCR; type: cell-based, mouse; details: 3 hr, dose-dependent
Procedure: FIG. 7A is a graph depicting MCP-1 and FKN expression in cardiomyocytes of mice infected with T cruzi. FIG. 7B is a graph depicting MCP-1 and FKN expression in cardiac fibroblasts of mice infected with T cruzi. T cruzi infection: Primary cultures of mouse cardiomyocytes (FIG. 7A) and cardiac fibroblasts (FIG. 7B) were plated in 6-well plates, infected with T cruzi Tulahuen strain (MOI=10) for 3, 24, and 72 hr, and MCP-1 and FKN transcripts were quantified by qPCR. Chemokine gene expression was normalized to HPRT and fold change calculated relative to uninfected cells. Points represent mean±SD fold change expression of triplicate samples. The experiment was repeated, and similar results were obtained. FIG. 7C is a graph depicting MCP-1 and FKN expression in cardiomyocytes of mice injected with sPDNF. FIG. 7D is a graph depicting MCP-1 and FKN expression in cardiac fibroblasts of mice injected with sPDNF. sPDNF stimulation: Primary cardiomyocytes (FIG. 7C) and cardiac fibroblasts (FIG. 7D) were plated in 6-well plates, serum starved overnight, then stimulated with the indicated concentration of sPDNF (3 hr), and MCP-1 and FKN transcripts were quantified by qPCR. Chemokine gene expression was normalized to HPRT and fold change calculated relative to vehicle-treated cells; *P<0.05, **P<0.01, and ***P<0.005. […]

[2] = test system: IL1-Ra, TSG-6 and COX-2; test: Intravenous sPDNF into naïve mice, anti-inflammatory factor transcripts in heart and liver; type: in vivo
Procedure: FIG. 2A is a graph showing stem cell marker expression in mice administered sPDNF. One set of three wild type C57BL/6 mice received intravenous (IV) PBS without (PBS) or with sPDNF (2 mg/kg) at 0, 3 and 24 hours (sPDNF 1d), and a second set IV sPDNF (2 mg/kg) for 6 days (sPDNF 6d). Mice were sacrificed 3 hr post injection and the indicated stem cells markers were quantified in the ventricles by real time PCR, and normalized to HPRT; *, p<0.05, **, p<0.001, ***, p<0.0001; SCF, stem cell factor, ns, not significant. FIG. 2B is a graph showing stem cell marker expression in MyD88^−/− mice administered sPDNF. TLR-deficient MyD88^−/− mice (C57BL/6 background) (2/group) were injected IV with a single dose of sPDNF (2 mg/kg), sacrificed at 3 hours post-injection, and the indicated cardiac stem cell markers assessed by qPCR. Data were normalized to HPRT and made relative to vehicle-treated controls (set at 1.0 and represented by the dashed line); **, P<0.01; and ***, P<0.005. FIG. 2C is a graph showing stem cell marker expression in mice administered sPDNF at various time points after injection. […] Cardiac Sca-1 and SCF transcripts were quantified by qPCR; **, P<0.001; ***, P<0.0005. FIG. 2D is a graph showing quantitation of Sca-1 expression in various organs of mice administered sPDNF. C57BL/6 mice (3 per group), average of two experiments) were injected IV with sPDNF at 4 mg/kg body weight or PBS, sacrificed 3 hours later, and Sca-1 mRNA quantified by qPCR in the liver, heart, colon and bone marrow (*, P<0.05, **, P<0.001; ns, not significant; dotted line represents Sca-1 mRNA of vehicle-treated mice set at 1.0, data are representative of 2 experiments. […] FIG. 2F is a graph showing quantitation of expression of inflammatory markers in mice administered sPDNF. Wild type and naïve mice (5 per group) were injected IV with a single dose of sPDNF (4 mg/kg), sacrificed 3 hr post-injection, and the L-1Ra, TSG-6, COX-2, and IDO transcripts quantified in the heart and liver. […]

B1: sPDNF: N-terminal short-form of T cruzi PDNF that contains Trk-binding sites, recombinant; amino acids 1-588 of SEQ ID NO: 2; JR-100 is the commercial name (protein, listed as Trypanosoma cruzi)
chain: MGKTVVVASRMFWLMFFVPLLLAICPSEPAYALAPGSSRVELFKRKNSTVPFEDKAGKVTERVVHSFRLPALVNVDGVMVAIADARYDTSNDNSLIDTVAKYSVDDGETWETQIAIKNSRVSSVSRVVDPTVIVKGNKLYVLVGSYYSSRSYWSSHGDARDWDILLAVGEVTKSTAGGKITASIKWGSPVSLKKFFPAEMEGMHTNQFLGGAGVAIVASNGNLVYPVQVTNKKKQVFSKIFYSEDDGKTWKFGKGRSDFGCSEPVALEWEGKLIINTRVDWKRRLVYESSDMEKPWVEAVGTVSRVWGPSPKSNQPGSQSSFTAVTIEGMRVMLFTHPLNFKGRWLRDRLNLWLTDNQRIYNVGQVSIGDENSAYSSVLYKDDKLYCLHEINTDEVYSLVFARLVGELRIIKSVLRSWKNWDSHLSSICTPADPAASSSESGCGPAVTTVGLVGFLSGNASQNVWEDAYRCVNASTANAERVRNGLKFAGVGGGALWPVSQQGQNQRYRFANHAFTLVASVTIHEAPRAASPLLGASLDSSGGKKLLGLSYDEKHQWQPIYGSTPVTPTGSWETGKRYHLVLTMANKI
- FKN transcripts [1]: increase
- MCP-1 transcripts [1]: increase
- expression of COX-2 [2]: increased expression
- expression of IL1-Ra [2]: increased expression
- expression of TSG-6 [2]: increased expression
